Experimental data taken from patent US10301358B2, “Collagen imaging compositions” (Collagen Medical, LLC, priority 2015, dated 2019).
Entries after “also recorded” stand apart in the source; their conditions may differ. Bridge positions count the residues as written; N and C are the ends. Ends that are not written are not given here.

What was measured:
[1] = biological target: T1, collagen (Rattus norvegicus, UniProt P02454+P02466); experiment: Uptake into fibrotic myocardial tissue, rat model of healed myocardial infarction; type: in vivo, Sprague Dawley rats; conditions: ~1 umol/kg, 3 weeks following infarction, sacrifice 60 minutes post-injection, tissue manganese
T1 construct: from tissue; host or cells: rat heart (normal and infarcted myocardium), in vivo
Description: Tissue samples from normal myocardium and infarcted myocardium are analyzed for manganese and hydroxyproline (collagen) content.

[2] = Pharmacokinetics (Rat); type: in vivo, Sprague Dawley rats; conditions: 1.3 umol/kg bolus IV, plasma sampled 2-90 minutes post-injection, ICP-MS
Description: Compound ID No. 1 is formulated at pH 7.5 (TRIS buffer) and administered to Sprague Dawley rats (n=2) at dose of 1.3 umol/kg using a bolus IV injection. Plasma is sampled at 2, 5, 15, 30, and 90 minutes post-injection and analyzed for manganese content using ICP-MS.

[3] = Myocardial perfusion imaging, canine LAD occlusion/reperfusion model; type: in vivo
Description: To mimic severe ischemia, a canine model is used in which an inflatable variable vascular occluder is placed around the left anterior descending coronary artery (LAD) to allow occlusion and reperfusion. Imaging is performed on a 3T clinical scanner 4 days after implantation of the occluder. The conventional saturation recovery pulse sequence for stress perfusion imaging is compared with a segmented inversion method. The purpose of the segmented inversion method is to leverage the steady-state properties of Compound ID No. 1. This segmented inversion recovery pulse sequence provides greater T1 weighting, higher spatial resolution, and greater myocardial tissue contrast. Additionally, since imaging is delayed, the entire heart can be imaged. After baseline MRI scanning, the balloon is inflated. […]
To assess relative perfusion, labeled microspheres are administered at 3 timepoints in the study. […] At autopsy under ultraviolet light, the hypo-perfused myocardium is differentiated from normal myocardium due to the lack of fluorescence in the hypo-perfused tissue. Based on the fluorescence, a sample of the ischemic territory and a sample of the remote myocardium are taken for ex vivo analysis. These tissue samples are weighed, digested in nitric acid, and analyzed for the elements La, Au, Lu (the three microsphere injections) and manganese (Compound ID No. 1) using ICP-MS. […]

[4] = Uptake into fibrotic liver tissue, bile duct ligated (BDL) rats; type: in vivo, Sprague-Dawley rats; conditions: ~7.5 μmol/kg, sacrifice after 90 min, BDL vs sham
Description: Bile duct ligated (BDL) rats are selected to assess the uptake of the complexes in fibrotic liver tissue as compared to sham operated animals. In this model, the common bile duct is surgically tied off and the resultant cholestasis results in fibrosis around the bile ducts. Laparotomy is performed in Sprague-Dawley rats with double ligation of the common bile duct with a section between the two ligatures (2-3% isoflurane anesthesia). […] Fibrosis is evident 15 days after ligation and increases with time up to 30 days after ligation, providing defined endpoints for imaging of moderate and severe fibrosis.
Studies are conducted by injecting Compound ID. No. 1 at a dose ˜7.5 μmol/kg. After 90 min, the animals are sacrificed and the 4 liver lobes and abdominal muscle are removed and the manganese concentration quantified by ICP-MS and collagen content quantified using hydroxyproline concentration.

T1 sequence (P02454 152-1207): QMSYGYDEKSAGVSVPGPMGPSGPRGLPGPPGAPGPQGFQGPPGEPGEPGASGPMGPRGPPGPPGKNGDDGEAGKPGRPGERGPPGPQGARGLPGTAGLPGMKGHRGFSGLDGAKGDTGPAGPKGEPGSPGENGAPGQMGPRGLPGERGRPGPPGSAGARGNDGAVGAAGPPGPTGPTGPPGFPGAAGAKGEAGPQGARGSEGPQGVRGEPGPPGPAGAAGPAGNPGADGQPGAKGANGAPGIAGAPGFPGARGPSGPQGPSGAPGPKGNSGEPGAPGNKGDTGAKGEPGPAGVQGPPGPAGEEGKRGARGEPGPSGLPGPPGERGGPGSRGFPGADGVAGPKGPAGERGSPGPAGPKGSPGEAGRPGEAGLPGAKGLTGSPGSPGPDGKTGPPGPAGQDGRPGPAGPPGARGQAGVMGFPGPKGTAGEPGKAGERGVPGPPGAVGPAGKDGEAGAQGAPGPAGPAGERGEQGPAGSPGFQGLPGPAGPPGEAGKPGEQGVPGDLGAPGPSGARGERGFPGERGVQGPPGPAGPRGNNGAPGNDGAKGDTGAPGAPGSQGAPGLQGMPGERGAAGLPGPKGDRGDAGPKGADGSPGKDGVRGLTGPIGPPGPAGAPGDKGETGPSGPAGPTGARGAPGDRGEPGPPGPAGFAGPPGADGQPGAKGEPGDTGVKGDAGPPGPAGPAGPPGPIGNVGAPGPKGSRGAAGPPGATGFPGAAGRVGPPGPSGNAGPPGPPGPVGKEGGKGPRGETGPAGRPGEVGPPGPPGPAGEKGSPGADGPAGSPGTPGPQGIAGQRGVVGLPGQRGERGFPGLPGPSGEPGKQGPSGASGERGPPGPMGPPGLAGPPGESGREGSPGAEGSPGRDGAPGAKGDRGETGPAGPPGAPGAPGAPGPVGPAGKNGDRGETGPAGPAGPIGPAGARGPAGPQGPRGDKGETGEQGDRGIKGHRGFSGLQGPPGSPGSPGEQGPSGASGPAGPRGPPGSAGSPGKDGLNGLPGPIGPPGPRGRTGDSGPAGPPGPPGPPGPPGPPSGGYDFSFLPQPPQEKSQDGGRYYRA
T1 sequence (P02466 86-1125): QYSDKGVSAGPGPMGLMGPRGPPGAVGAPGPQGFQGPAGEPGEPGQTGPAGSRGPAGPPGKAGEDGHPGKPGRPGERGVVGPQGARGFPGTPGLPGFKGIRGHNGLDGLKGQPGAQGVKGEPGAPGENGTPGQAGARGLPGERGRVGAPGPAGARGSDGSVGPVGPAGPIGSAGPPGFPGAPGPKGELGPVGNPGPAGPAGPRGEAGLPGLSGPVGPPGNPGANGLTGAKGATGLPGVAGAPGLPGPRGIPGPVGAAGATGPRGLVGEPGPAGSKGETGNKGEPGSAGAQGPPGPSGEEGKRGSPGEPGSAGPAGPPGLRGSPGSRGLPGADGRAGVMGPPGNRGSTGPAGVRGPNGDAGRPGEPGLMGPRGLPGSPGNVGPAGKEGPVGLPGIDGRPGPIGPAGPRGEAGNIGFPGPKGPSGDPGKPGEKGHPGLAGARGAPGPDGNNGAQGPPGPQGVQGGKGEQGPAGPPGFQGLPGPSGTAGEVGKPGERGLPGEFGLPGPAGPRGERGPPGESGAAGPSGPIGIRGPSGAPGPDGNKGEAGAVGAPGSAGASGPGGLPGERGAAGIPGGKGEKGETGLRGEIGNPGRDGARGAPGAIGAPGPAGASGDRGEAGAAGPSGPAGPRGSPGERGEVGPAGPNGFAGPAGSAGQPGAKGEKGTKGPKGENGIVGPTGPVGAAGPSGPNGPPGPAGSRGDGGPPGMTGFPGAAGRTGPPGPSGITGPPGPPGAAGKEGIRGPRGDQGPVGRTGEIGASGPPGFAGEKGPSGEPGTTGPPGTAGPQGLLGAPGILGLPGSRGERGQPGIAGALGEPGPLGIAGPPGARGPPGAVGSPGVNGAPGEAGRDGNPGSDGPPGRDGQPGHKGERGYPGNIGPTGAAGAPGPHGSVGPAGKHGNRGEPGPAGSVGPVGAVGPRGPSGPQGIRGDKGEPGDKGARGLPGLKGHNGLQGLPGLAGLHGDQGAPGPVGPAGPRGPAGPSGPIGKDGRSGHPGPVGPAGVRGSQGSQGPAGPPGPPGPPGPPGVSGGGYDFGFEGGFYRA

Substance | uptake in normal vs. scarred myocardium [1] | pharmacokinetic profile (plasma manganese content) [2] | MR visualization of myocardial perfusion defect ([3]; 7.5 μmol/kg i.v. bolus one minute after coronary artery occlusion, 3T scanner, listed as 1) | Mn concentration in ischemic vs normal myocardium ex vivo ([3]; 7.5 μmol/kg i.v., sacrifice ca. 120 minutes post injection, ICP-MS) | uptake into fibrotic liver tissue (manganese vs hydroxyproline) [4]
Compound ID No. 4: MnCDTAGA linked to terminal nitrogen or lysine epsilon amino groups of peptide SEQ ID No. 4, C-terminus —NH2 amide; FIG. 4 (KWHCYTKFPHHYCVY; disulfide 4-13 (inferred); not fully specified (C-terminus); printed as K-W-H-C-Y-T-K-F-P-H-H-Y-C-V-Y-Bip; also: MnCDTAGA on N-terminal amine or lysine ε-amino group) | greater binding in fibrotic cardiac tissue as compared with normal myocardial tissue | – | – | – | –
Compound ID No. 2: MnCDTAGA linked to terminal nitrogen and lysine epsilon amino groups of peptide SEQ ID No. 2, C-terminus —NH2 amide; FIG. 2 (MnCDTAGA-K(MnCDTAGA)WHCTTK(MnCDTAGA)FPHHYCLY; disulfide 4-13 (inferred); not fully specified (C-terminus); printed as K-W-H-C-T-T-K-F-P-H-H-Y-C-L-Y-Bip) | greater binding in fibrotic cardiac tissue as compared with normal myocardial tissue | – | – | – | –
Compound ID No. 1: MnCDTAGA conjugate of cyclic collagen binding peptide SEQ ID No. 1 (G-K-W-H-C-T-T-K-F-P-H-H-Y-C-L-Y-Bip), amidated C-terminus; FIG. 1 (GKWHCTTKFPHHYCLY; MnCDTAGA conjugate; cyclic disulfide; C-terminal amide) | greater binding in fibrotic cardiac tissue as compared with normal myocardial tissue | rapid initial blood clearance | readily visualized; also recorded: positive image contrast in the normally perfused myocardium | preferential deposition in normal vs ischemic cardiac tissue | consistent with uptake of Compound ID No. 1 into fibrotic-rich liver tissue
